Kd, koff and kon data for four molecules are collected here from publication PMC10349087 (Nature Communications, 2023).

B1: NIV-10 Fab (Fab, V domains shown)
VH: EVQLVESGGGLVQPGGSLRLSCAASGFTFYSYWMTWVRQAPGKGLEWVANIKHDESESHYVDSVRGRFTISRDNAKNSVYLQMKGLRAEDTAVYYCARDGGYNILTAYYHAPSYWGQGTLVTVSS
VL: QSALTQPASVSGSPGQSITISCTGTSSDVGGYNFVSWYRQYPGKAPQLMIYDVSRRPSGDSDRFSGSKSGNTASLTISGLQAEDEAEYHCSSYTGRSPYVVFGGGTKVTVL
B2: NIV-8 Fab (Fab, V domains shown)
VH: EVQLVESGGGVVQPGRSLRLSCAASGFKFSKFAMHWVRQAPGKGPEWVAVISYDGNQYHSADSVKGRFTISRDNSFNTLYLQMNSLGPEDTAVYYCARDGPDTSGYYANIYFDFWGQGTLVTVSS
VL: QSVLTQPPSVSGAPGQRVTISCTGSSSNIGAGYDVHWYQQLPGRAPKLLIFDNNNRPSGVPDRFSGSKSGTSASLAITGLQTEDEAYYYCQSYDNSLILAVFGGGTKVTVL
B3: NIV-11 Fab (Fab, V domains shown)
VH: QLVQSGPEVKKPGTSVKVSCKASGFTFYYSAVQWVRQARGQRLEWLGWMAVGSGKANYAQKFQERLTLTRDMSTSTAYMELSSLRSEDTAVYYCAAPNCTGGSCYDGFNLWGQGTVVTVSS
VL: EIVLTQSPGTLSLSPGDRAILSCRASQTVNSNYLAWYQQKPGQAPRLLIYGTSSRATGIPDRFSGSGSGTDFTLTISRLEPEDFAVYYCQQYGSSPWLFGQGTKVEIK
B4: NIV-13 Fab (Fab, V domains shown)
VH: EVQLLESGGGLVQPGGSLRLSCAASGFTFSRYALSWVRQAPGKGLEWVSAISGAAITTYYADSVKGRFTISRDDSRNTLFMQMDSLRAEDTAVYYCAKGDYYDSSGYLAEYFPHWGQGTLVTVSS
VL: SYELTQPPSVSVSPGQTARITCFADALPKQHAYWYQQKAGQAPVLVIFKDTERPSGIPKRFSGSRSGATVTLTISGVQAEDEADYYCQSTDISGVLFGGGTKLTVL

The target of the test is SARS-CoV-2 spike receptor-binding domain, ancestral (amino acids 331-529), biotinylated (SARS-CoV-2, ancestral (Wuhan), UniProt P0DTC2, biotin (RBD expression vector co-expressed with BirA-Flag, 100 μM biotin added)). Nature of the test: BLI. The settings on record: both partners purified.
Consider B1, for which the affinity, expressed as Kd, was 5.42 pM; the koff is 1.24e-06 s⁻¹; the kon came to 223000 M⁻¹ s⁻¹.

B2: the dissociation constant Kd worked out at 10.9 pM, the off-rate constant (koff) was determined as 1.15e-06 s⁻¹ and the kon was 106000 M⁻¹ s⁻¹.

With B3, the Kd is 20.8 pM, the off-rate constant (koff) turned out to be 1.12e-06 s⁻¹ and the on-rate (kon) was 53600 M⁻¹ s⁻¹.

In turn, B4 yielded a Kd of 7.33 pM, an off-rate constant (koff) of 1.19e-06 s⁻¹ and an on-rate constant (kon) of 163000 M⁻¹ s⁻¹.
